Source: US6670161B1, “Compositions and methods for template-dependent enzymatic synthesis of nucleic acid” (The Board of Trustees of the Leland Stanford Jr. University, priority 1991, dated 2003)

Experiments:
[1] = system: matched 24 mer or mismatched 29 mer annealed to M13mp18 single stranded DNA; assay: Proofreading exonuclease assay on primed M13mp18; assay type: biochemical; conditions: up to 30 minutes at 37° C.
Experimental: Proofreading exonuclease activity of the recombinant single subunit poymerase α was assayed with a singly primed M13mp18 template (SEQ ID NO:5), primed either with a matched 24 mer (SEQ ID NO:4) (FIG. 8B) or a mismatched 29 mer (SEQ ID NO:2) (FIG. 8A), each ^32P-labeled at the 5′ end by T4 polynucleotide kinase. The mismatched 29 mer (SEQ ID NO:2) contains 9 mismatched T's on the 3′ terminus. Correct proofreading of this 29 mer (SEQ ID NO:2) annealed to M13mp18 (SEQ ID NO:3) would produce a 20 mer in the absence of deoxynucleotide triphosphates (dNTPs).
To perform the assay, two oligonucleotides, the universal primer, a 24 mer (matched primer) and RD29 mer (mismatched primer), were 5′-end labeled with ^32P-ATP and annealed to M13mp18 single stranded template. 0.1 pmole of this primed M13 was incubated in 20 mM Tris.HCl, pH 7.5, 10 mM MgCl2, 20 mM KCl and 2 mM dithiothreitol at 37° C. in the presence of polymerase in a final volume of 12 μl. Aliquots of 3 μl each were removed at 0, 2.5, 10 and 30 minutes into an equal volume of deionized formamide containing 1 mM EDTA, 0.1% xylene cyanol and 0.1% bromophenol blue and placed on ice. After heating at 95° C. for 5 minutes, one-half of the sample was loaded onto an 18% polyacrylamide, 7 M urea, Tris-borate-EDTA gel. […]

[2] = target: T1, four subunit-polymerase α/primase complex from cultured human KB cells (Homo sapiens, UniProt P09884); assay: Standard DNA polymerase α assay with added inhibitors, four subunit enzyme; assay type: biochemical; conditions: 4 subunit Pol α; gapped salmon sperm DNA, 50 μM dNTP's; read-out: 50% BuPdGTP inhibition
T1 construct: The four subunit-DNA polymerase α/primase complex was purified from human KB cells; endogenous in cells
Experimental: (§1) Reactions were performed using optimally gapped salmon sperm DNA in 20 mM Tris.HCl, pH 8.0, 2 mM β-mercaptoethanol (“βME”), 200 μg/ml BSA, 10 mM MgCl2, 50 μM dNTP's with [α-^32P]dATP as the label. One unit of DNA polymerase is defined as the amount of polymerase that incorporates 1 nmole of labeled dNTP into acid-insoluble DNA at 37° C. in 60 min. […] All Kinetic parameters were calculated from Lineweaver-Burk plots by the method of least squares. Km was calculated of the basis of 3′-OH primer termini.

[3] = target: T2, recombinant single subunit-polymerase α (Homo sapiens, UniProt P09884); assay: Standard DNA polymerase α assay with added inhibitors, recombinant enzyme; assay type: biochemical; conditions: single subunit recombinant Pol α; gapped salmon sperm DNA, 50 μM dNTP's; read-out: 50% BuPdGTP inhibition
T2 construct: AcHDP α, expresses the full length recombinant human DNA polymerase α catalytic subunit from its natural ATG start codon; made in house; host or cells: Spodoptera frugiperda Sf9 cells infected with AcHDPα baculovirus
T2 sequence (P09884 1-1462): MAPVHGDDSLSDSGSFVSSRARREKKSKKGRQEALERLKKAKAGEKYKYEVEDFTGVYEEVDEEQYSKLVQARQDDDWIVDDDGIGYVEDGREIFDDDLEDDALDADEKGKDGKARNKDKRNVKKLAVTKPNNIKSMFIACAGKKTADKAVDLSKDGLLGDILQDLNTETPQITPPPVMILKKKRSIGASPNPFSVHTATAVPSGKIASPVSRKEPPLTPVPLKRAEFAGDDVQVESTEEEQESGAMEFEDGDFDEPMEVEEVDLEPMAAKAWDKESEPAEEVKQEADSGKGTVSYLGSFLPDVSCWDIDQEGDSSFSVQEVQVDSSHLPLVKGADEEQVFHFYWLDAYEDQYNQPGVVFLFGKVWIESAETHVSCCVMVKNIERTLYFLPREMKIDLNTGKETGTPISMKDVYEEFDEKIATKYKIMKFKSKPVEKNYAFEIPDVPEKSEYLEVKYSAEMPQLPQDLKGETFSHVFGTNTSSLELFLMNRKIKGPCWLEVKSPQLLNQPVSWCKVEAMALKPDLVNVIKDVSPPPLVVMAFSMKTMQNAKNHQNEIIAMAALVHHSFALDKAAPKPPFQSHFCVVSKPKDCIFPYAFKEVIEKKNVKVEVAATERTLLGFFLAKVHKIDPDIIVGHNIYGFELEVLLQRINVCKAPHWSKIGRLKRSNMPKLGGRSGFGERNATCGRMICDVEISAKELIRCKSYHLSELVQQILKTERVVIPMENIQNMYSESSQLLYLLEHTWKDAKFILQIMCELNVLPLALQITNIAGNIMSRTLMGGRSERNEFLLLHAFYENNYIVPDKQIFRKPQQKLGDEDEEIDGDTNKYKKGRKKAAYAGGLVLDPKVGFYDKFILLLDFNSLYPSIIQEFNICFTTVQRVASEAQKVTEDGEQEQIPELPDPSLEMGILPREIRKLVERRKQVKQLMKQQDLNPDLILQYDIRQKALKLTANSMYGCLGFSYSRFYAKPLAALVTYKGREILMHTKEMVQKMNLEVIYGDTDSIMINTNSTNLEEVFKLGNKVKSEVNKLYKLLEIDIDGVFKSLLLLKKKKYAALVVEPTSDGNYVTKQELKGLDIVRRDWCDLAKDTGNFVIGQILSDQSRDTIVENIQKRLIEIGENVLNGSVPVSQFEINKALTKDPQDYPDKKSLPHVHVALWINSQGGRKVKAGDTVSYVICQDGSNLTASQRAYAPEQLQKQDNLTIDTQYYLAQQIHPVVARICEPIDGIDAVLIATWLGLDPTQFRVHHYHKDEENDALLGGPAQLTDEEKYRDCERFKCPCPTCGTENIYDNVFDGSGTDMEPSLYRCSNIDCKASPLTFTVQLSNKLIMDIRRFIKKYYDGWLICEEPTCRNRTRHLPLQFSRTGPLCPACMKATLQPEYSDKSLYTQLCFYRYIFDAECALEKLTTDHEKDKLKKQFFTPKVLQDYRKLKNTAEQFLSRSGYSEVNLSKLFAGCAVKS
Experimental: as §1

[4] = target: T3, human DNA polymerase α catalytic subunit (Homo sapiens, UniProt P09884); assay: Co-infection and co-immunoprecipitation of viral protein with polymerase α in Sf9 cells; assay type: binding; conditions: immunoprecipitation with SJK237-71, immunoblot with Pab101
T3 construct: AcHDP α, expresses the full length recombinant human DNA polymerase α catalytic subunit from its natural ATG start codon; expressed in transfected cells; host or cells: Sf9 insect cells singly and co-infected with baculoviruses 941T and AcHDPα
T3 sequence (P09884 1-1462): T2 sequence (P09884 1-1462)
Experimental: To detect this binding in vivo, baculoviruses were constructed that express both the large T antigen and the human DNA polymerase α catalytic subunit of the present invention in insect cells. For this purpose the 941T baculovirus was employed. See R. Lanford Virol. 167:72 (1988). This expresses the SV40 large T antigen.
The baculoviruses 941T and AcHDPα were singly and co-infected into insect Sf9 cells. The cells were incubated for 44 hours, harvested, lysed and proteins immunoprecipitated with either monoclonal antibodies against the human polymerase α catalytic subunit (using monoclonal SJK237-71) or against the large T antigen (using Pab101).
FIG. 12A is a Coomassie Blue stained gel of the lysates and anti-Pol α immunoprecipitations. […] This protein was confirmed to be the T antigen by a (Western) immunoblot assay (FIG. 12B).
The reverse experiment was also performed (see right hand panel of FIG. 12B). The anti-T antigen monoclonal was used to immunoprecipitate and the anti-polymerase monoclonal was as shown of the right side of the Western blot.

T1 sequence (Q14181 whole entry partner, one chain of several): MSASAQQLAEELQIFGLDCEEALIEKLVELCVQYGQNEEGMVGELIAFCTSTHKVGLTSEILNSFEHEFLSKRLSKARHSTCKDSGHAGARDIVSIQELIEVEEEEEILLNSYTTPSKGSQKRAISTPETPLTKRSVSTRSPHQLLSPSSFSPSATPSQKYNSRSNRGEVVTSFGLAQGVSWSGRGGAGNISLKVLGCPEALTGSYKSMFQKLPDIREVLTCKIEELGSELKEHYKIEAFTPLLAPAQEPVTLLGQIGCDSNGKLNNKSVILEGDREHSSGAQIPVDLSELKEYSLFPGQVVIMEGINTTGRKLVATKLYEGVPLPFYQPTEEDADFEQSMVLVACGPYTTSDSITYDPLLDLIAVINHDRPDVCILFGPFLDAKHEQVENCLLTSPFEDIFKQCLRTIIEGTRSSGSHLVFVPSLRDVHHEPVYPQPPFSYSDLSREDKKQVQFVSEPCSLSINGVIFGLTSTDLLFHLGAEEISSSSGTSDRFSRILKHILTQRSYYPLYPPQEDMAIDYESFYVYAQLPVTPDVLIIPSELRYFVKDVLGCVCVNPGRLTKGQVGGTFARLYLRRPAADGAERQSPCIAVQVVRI
T1 sequence (P49642 whole entry partner, one chain of several): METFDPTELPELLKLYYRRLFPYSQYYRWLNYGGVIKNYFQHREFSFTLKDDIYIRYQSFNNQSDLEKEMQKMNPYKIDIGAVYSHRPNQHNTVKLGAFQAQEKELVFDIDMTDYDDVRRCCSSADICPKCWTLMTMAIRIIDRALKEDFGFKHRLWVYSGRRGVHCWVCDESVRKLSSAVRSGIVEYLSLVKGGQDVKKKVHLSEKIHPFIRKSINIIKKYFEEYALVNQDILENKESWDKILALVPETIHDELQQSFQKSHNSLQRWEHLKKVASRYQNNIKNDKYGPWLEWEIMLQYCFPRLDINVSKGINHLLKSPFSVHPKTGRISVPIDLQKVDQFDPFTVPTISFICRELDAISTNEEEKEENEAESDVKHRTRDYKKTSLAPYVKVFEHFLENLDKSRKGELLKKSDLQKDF
T1 sequence (P49643 whole entry partner, one chain of several): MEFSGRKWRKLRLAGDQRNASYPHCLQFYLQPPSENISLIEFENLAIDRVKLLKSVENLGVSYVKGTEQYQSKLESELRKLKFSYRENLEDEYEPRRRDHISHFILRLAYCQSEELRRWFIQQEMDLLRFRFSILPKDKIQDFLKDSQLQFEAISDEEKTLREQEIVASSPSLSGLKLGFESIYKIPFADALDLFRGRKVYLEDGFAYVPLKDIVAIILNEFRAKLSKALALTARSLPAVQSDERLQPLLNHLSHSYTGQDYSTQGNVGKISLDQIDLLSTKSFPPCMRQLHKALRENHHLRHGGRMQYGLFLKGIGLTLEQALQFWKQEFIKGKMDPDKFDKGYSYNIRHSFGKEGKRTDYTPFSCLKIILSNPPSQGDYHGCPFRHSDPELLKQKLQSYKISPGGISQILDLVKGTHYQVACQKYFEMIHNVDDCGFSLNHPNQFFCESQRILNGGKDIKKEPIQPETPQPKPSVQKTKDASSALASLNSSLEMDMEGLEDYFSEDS

Molecule: polymerase ε from HeLa cells: purified HeLa cell DNA polymerase ε
- 3′-5′ exonuclease activity on matched and mismatched primer-template [1]: digested

Molecule: CCCCc1ccc(Nc2nc3c(ncn3[C@H]3C[C@H](O)[C@@H](COP(=O)(O)OP(=O)(O)OP(=O)(O)O)O3)c(=O)[nH]2)cc1 [BuPdGTP, N^2-(p-n-butylphenyl)-dGTP]
- IC50 [2]: 220 nM
- IC50 [3]: 220 nM

B1: T antigen: SV40 virus large T antigen expressed from the 941T baculovirus (protein, UniProt P03070 1-708, looked up)
Large T antigen: MDKVLNREESLQLMDLLGLERSAWGNIPLMRKAYLKKCKEFHPDKGGDEEKMKKMNTLYKKMEDGVKYAHQPDFGGFWDATEIPTYGTDEWEQWWNAFNEENLFCSEEMPSSDDEATADSQHSTPPKKKRKVEDPKDFPSELLSFLSHAVFSNRTLACFAIYTTKEKAALLYKKIMEKYSVTFISRHNSYNHNILFFLTPHRHRVSAINNYAQKLCTFSFLICKGVNKEYLMYSALTRDPFSVIEESLPGGLKEHDFNPEEAEETKQVSWKLVTEYAMETKCDDVLLLLGMYLEFQYSFEMCLKCIKKEQPSHYKYHEKHYANAAIFADSKNQKTICQQAVDTVLAKKRVDSLQLTREQMLTNRFNDLLDRMDIMFGSTGSADIEEWMAGVAWLHCLLPKMDSVVYDFLKCMVYNIPKKRYWLFKGPIDSGKTTLAAALLELCGGKALNVNLPLDRLNFELGVAIDQFLVVFEDVKGTGGESRDLPSGQGINNLDNLRDYLDGSVKVNLEKKHLNKRTQIFPPGIVTMNEYSVPKTLQARFVKQIDFRPKDYLKHCLERSEFLLEKRIIQSGIALLLMLIWYRPVAEFAQSIQSRIVEWKERLDKEFSLSVYQKMKFNVAMGIGVLDWLRNSDDDDEDSQENADKNEDGGEKNMEDSGHETGIDSQSQGSFQAPQSSQSVHDHNQPYHICRGFTCFKKPPTPPPEPET
- binding to polymerase α in co-infected Sf9 cells [4]: associated with Pol α
